Literature values in patent publication US20100233200A1, “VECTOR ENCODING THERAPEUTIC POLYPEPTIDE AND SAFETY ELEMENTS TO CLEAR […]” (priority 2007, published 2010).

B1: R200A mutant: modified human tmpk, SEQ ID NOS: 15 and 16 (protein)
chain: MAARRGALIVLEGVDRAGKSTQSRKLVEALCAAGHRAELLRFPERSTEIGKLLSSYLQKKSDVEDHSVHLLFSANRWEQVPLIKEKLSQGVTLVVDRYAFSGVAFTGAKENFSLDWCKQPDVGLPKPDLVLFLQLQLADAAKRGAFGHERYENGAFQERALRCFHQLMKDTTLNWKMVDASKSIEAVHEDIRVLSEDAIATATEKPLGELWK
B2: F105Y mutant: modified human tmpk, SEQ ID NO: 11, SEQ ID NO: 21 (protein, UniProt P23919 2-212, looked up, variant F105Y)
Thymidylate kinase: AARRGALIVLEGVDRAGKSTQSRKLVEALCAAGHRAELLRFPERSTEIGKLLSSYLQKKSDVEDHSVHLLFSANRWEQVPLIKEKLSQGVTLVVDRYAFSGVAYTGAKENFSLDWCKQPDVGLPKPDLVLFLQLQLADAAKRGAFGHERYENGAFQERALRCFHQLMKDTTLNWKMVDASKSIEAVHEDIRVLSEDAIRTATEKPLGELWK

Test system: human tmpk
Settings: relative to wild-type tmpk; cited from earlier work

Molecule	enzymatic activity (dTMP to dTDP or AZT-MP to AZT-DP)
B1	superior enzymatic activity
B2	superior enzymatic activity
